For the test, the target named is ryanodine receptors (rat (endogenous in rat ventricular myocytes)) (UniProt B0LPN4). Nature of the test: fluorescence wash-in and wash-out in permeabilized myocytes.

By Kd is commonly meant the free concentration of one partner at which half of the binding sites on the other are occupied at equilibrium, for simple one-to-one binding. High values mean weaker binding, low ones tighter binding.

Chain of UniProt B0LPN4 (B0LPN4 whole entry): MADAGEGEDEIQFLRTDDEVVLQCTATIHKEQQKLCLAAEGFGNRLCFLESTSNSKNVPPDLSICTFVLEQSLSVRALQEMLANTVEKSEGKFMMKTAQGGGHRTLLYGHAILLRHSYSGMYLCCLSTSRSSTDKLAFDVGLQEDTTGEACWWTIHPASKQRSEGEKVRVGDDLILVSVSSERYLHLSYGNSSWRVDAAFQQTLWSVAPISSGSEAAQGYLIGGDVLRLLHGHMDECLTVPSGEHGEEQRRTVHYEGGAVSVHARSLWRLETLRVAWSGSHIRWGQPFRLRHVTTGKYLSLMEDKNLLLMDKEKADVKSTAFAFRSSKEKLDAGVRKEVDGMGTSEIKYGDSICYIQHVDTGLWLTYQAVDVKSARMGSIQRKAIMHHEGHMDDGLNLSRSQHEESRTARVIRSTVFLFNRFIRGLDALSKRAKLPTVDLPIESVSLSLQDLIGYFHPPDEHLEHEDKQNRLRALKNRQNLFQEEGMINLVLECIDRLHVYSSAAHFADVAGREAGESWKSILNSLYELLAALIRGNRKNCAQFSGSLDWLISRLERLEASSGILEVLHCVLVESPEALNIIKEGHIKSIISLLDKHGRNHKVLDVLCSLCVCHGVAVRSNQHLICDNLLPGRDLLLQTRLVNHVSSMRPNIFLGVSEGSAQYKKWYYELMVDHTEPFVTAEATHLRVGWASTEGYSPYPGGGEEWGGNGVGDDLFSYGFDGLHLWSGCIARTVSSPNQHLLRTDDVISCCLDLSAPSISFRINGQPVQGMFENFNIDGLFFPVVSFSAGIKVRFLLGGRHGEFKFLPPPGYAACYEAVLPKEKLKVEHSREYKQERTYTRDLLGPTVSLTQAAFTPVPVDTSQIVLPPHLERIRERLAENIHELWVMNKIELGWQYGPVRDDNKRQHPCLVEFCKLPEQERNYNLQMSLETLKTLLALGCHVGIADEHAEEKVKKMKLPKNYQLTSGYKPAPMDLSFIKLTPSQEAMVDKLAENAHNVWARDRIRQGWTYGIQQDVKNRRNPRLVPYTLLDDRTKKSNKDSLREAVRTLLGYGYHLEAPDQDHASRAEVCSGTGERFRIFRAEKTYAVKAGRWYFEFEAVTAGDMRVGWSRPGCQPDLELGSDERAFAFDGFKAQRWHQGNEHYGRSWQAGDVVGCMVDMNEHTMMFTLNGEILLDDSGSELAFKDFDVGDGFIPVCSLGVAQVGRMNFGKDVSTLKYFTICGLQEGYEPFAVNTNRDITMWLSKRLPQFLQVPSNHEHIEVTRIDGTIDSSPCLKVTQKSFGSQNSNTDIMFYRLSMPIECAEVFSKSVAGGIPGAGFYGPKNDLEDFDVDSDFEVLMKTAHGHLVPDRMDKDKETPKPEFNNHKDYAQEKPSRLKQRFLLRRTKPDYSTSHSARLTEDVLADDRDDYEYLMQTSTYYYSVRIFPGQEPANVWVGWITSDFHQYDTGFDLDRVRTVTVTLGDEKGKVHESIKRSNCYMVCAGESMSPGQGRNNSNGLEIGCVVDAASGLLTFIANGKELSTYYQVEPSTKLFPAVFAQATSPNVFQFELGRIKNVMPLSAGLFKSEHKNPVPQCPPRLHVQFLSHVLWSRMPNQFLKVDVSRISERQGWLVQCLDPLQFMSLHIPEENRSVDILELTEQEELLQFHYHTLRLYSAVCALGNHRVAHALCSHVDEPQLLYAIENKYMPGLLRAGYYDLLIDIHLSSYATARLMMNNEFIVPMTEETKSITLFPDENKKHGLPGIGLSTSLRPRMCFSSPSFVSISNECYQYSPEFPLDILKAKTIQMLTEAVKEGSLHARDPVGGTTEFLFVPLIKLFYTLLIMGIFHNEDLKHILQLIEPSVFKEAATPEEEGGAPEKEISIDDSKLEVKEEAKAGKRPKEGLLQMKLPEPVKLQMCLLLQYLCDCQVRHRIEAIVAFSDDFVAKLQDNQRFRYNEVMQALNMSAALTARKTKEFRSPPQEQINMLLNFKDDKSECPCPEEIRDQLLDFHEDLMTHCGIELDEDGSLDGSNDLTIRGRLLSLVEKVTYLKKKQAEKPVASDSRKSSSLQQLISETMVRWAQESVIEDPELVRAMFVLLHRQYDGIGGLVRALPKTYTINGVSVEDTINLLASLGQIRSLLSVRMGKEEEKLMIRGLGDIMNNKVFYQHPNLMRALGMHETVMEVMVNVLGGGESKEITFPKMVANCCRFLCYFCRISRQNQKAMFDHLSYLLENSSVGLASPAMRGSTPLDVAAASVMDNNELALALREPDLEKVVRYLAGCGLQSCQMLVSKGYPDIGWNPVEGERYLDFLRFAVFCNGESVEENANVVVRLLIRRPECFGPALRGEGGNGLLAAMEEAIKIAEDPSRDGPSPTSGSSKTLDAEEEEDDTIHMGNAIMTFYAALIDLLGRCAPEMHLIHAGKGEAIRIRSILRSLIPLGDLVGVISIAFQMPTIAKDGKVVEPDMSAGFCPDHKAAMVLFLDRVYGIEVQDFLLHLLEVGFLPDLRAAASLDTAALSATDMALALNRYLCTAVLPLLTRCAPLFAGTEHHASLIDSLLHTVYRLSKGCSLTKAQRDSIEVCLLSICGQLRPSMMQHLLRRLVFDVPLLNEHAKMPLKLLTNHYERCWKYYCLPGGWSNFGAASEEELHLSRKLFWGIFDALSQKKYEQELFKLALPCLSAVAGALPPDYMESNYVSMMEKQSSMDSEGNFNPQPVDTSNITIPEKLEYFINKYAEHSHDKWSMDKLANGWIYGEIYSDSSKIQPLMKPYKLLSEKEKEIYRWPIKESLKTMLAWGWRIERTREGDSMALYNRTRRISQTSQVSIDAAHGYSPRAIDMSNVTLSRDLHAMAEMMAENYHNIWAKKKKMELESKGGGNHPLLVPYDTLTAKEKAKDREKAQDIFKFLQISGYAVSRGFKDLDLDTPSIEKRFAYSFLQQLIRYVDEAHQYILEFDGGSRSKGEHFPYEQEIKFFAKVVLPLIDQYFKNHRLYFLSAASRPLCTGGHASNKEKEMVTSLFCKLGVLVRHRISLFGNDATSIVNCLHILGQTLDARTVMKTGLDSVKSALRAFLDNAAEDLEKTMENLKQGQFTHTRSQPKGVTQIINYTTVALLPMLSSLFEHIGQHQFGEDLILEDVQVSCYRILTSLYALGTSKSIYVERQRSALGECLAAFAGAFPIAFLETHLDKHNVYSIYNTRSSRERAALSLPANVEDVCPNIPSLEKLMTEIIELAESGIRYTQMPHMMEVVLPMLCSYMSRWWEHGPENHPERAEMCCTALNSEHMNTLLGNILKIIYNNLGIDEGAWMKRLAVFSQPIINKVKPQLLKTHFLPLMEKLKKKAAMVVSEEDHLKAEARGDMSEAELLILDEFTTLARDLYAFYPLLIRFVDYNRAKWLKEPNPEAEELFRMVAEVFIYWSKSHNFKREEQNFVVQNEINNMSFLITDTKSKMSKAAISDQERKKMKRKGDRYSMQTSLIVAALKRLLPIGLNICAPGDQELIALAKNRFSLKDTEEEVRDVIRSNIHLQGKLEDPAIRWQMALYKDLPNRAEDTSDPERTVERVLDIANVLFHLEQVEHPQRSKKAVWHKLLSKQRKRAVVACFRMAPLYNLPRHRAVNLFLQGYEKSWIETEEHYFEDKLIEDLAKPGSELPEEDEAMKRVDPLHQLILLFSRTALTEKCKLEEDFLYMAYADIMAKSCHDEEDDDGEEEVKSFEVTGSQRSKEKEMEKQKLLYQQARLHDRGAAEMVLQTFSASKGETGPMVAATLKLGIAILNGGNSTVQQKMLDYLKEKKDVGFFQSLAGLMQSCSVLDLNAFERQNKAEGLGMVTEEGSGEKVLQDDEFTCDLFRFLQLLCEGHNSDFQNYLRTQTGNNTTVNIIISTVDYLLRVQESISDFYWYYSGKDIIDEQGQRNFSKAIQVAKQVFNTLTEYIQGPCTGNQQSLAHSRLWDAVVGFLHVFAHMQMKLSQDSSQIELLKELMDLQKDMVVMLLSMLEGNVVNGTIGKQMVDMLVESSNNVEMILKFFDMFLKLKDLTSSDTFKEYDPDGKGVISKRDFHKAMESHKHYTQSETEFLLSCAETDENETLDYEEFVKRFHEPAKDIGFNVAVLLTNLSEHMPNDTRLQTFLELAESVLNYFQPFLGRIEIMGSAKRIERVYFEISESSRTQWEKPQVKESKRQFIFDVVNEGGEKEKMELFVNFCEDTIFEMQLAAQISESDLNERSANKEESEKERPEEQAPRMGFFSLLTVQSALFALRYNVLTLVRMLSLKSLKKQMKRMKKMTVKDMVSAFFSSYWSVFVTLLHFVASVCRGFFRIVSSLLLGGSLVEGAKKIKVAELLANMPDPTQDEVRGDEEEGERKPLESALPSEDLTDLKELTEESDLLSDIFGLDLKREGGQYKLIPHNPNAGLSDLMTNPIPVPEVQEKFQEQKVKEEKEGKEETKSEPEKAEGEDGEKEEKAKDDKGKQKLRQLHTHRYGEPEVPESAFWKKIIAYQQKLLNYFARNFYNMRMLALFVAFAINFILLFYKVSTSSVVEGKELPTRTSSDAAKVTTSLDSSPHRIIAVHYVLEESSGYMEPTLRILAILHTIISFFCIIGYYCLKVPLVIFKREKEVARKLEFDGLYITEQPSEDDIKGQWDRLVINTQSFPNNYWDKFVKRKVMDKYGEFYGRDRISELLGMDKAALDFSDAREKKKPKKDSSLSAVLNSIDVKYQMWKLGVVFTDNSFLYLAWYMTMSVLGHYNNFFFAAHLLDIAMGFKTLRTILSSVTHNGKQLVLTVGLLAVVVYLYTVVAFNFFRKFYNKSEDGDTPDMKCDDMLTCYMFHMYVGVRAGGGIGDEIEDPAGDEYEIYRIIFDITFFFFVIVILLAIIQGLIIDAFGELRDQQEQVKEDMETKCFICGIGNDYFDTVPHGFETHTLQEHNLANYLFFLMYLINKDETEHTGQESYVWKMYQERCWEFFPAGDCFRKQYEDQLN

Substance GCaMP2.2-FKBP12.6 registered a Kd of 15.5 nM. This counts as double-digit nanomolar.
Next, GCaMP2.2Low-FKBP12.6: 43.8 nM.

These data come from article PMC4132890.
